The values that follow come from the RNAGym collection of RNA variant scans (doi:10.1073/pnas.2313332121).

This sample holds only a part of the variants without activity.

B1: TPR 5TU (parent)
chain: GGAUCUUCUCGAUCUAACAAAAAAGACAAAUCUGCCACAAAGCUUGAGAGCAUCUUCGGAUGCAGAGGCGGCAGCCUUCGGUGGCGCGAUAGCGCCAACGUUCUCAACUAUGACACGCAAAACGCGUGCUCCGUUGAAUGGAGUUUAUCAUG

Variants of B1 are the subject of this data set. As to the kind of experiment: polymerase ribozyme fitness, log enrichment relative to wild type (log ratio); higher = more active; in vitro selection for triplet polymerase activity. The essentials: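 In triplicate, a single round of in vitro selection was run on each mutant library, PCR-built and transcribed, covering one subunit of a heterodimeric triplet polymerase ribozyme. Frozen incubation at −7 °C followed annealing with a biotinylated primer, partner subunit and triplets, and extended constructs were then gel-excised, streptavidin-captured and taken through RT-PCR. Fitness is the logarithm of genotype enrichment over wild-type enrichment, from inverse-variance-weighted replicate averages of Illumina-sequenced inputs and outputs. […] only genotypes with ≥10 input reads and ≥1 read per output were kept.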
With C116U U145C U148C, the “polymerase ribozyme fitness (log ratio)” value was -2.77. Under A29U A37C G80A G88C G133U stands at most -4.2; under C5G G50U G81C G92C G143A, -2.74.

For the variant C14G A40C G42C G48A G86U G92U C99A, the “polymerase ribozyme fitness (log ratio)” value is at most -4.2. Under A60C C76U A89G C114U G141U stands at most -4.2; under C93A A97U, -3.38. As for G81A G86A A97C, the figure is -0.925. Under G86U G100A C131U stands at most -4.2. In the case of A22U A29G C35G U44G C57U C114A, the “polymerase ribozyme fitness (log ratio)” value is at most -4.2. On to U44A U144G U151G, for which the “polymerase ribozyme fitness (log ratio)” value is at most -4.2. A60C A73U: the “polymerase ribozyme fitness (log ratio)” value is -3.54. Under C85U A98U U139A stands at most -4.2; under A52G U56A C87A C93A A113G U135A, at most -4.2; under A30G C85U G128A, at most -4.2. As for C87A U146G, the figure is at most -4.2; as for U53C U55A C99U U111C, at most -4.2. As for G59U G67A G92U, the figure is -3.83. With A66C G92A, the “polymerase ribozyme fitness (log ratio)” value was at most -4.2. As for A17G C125A, the figure is 0.215; as for G59A G100C, at most -4.2.

On to A3C G34C G48C A106U A138G A150G, for which the “polymerase ribozyme fitness (log ratio)” value was at most -4.2.

Consider U101C, for which the “polymerase ribozyme fitness (log ratio)” value worked out at 0.385. In the case of A19G C51U A52C A60U G65A G84U C85A C87U A98C A138G, the “polymerase ribozyme fitness (log ratio)” value was at most -4.2. On to A3U C36A U55C C79A C99A U145G, for which the “polymerase ribozyme fitness (log ratio)” value is at most -4.2. Under A24G G62U C85U U146A stands at most -4.2; under G50U A122G U148A, -3.37. As for C99G A113C U135C, the figure is at most -4.2; as for A52G G136U A142G, -3.58; as for C85G U101G G128U, -4.03. Regarding C69A A120C, the “polymerase ribozyme fitness (log ratio)” value was -1.7. Regarding A17G A21C C116U, the “polymerase ribozyme fitness (log ratio)” value turned out to be 0.03. U4A G94A: the “polymerase ribozyme fitness (log ratio)” value is -0.663. Under U45A G50A U135G stands at most -4.2; under C32G U53A C79U G140U, -4.06; under A23U U33A U45A G46A C96U, -4.15.

Turning to C57G G84A, the “polymerase ribozyme fitness (log ratio)” value was -0.518.

On to A52C C93G A122G, for which the “polymerase ribozyme fitness (log ratio)” value is -3.18. Under A19C G88A C95A C99U stands at most -4.2; under A12C C43U A52C G84U C93G C132G, at most -4.2. Under G50A G84U A147U stands -1.53; under A26U A30U G48A, at most -4.2; under C35G U55A G58A G86U A147U, -4.06.

As to U31G, the “polymerase ribozyme fitness (log ratio)” value stood at 0.749. Under U61A C99G stands -3.23.

On to G46C C57U U61G C75G A119U G141A, for which the “polymerase ribozyme fitness (log ratio)” value is at most -4.2.

A16G A110G: the “polymerase ribozyme fitness (log ratio)” value was -3.77.

Turning to C35U A40U U55A C99A U101G G152A, the “polymerase ribozyme fitness (log ratio)” value was at most -4.2. Turning to U4G C85U, the “polymerase ribozyme fitness (log ratio)” value is -0.873. As for U33G A49C C75G G92A U101G C105A, the figure is -4.15; as for C27U A28U C76U U78G C93G A119G, at most -4.2; as for C14G U15A C54U C69A C99A U148A, at most -4.2. Under A40U A60C C72U G84U stands -2.77; under C14G C85G C103A, at most -4.2; under G81A C85G, -1.86. Take C27A A29G U33G C35A A60G C93G A97G A120U G133U U134G: the “polymerase ribozyme fitness (log ratio)” value was at most -4.2. Under U7C C27G C57G G88C G124A U134G stands at most -4.2; under A3G C18U G34U C95U A115C, -4.09; under U13C C36A C85G C99A A138C, at most -4.2. Under A24U A37U C51A C87U A98U G100U stands at most -4.2.

For the variant G34C U45A G50C A52C U53A C76A G81A G92A C105G, the “polymerase ribozyme fitness (log ratio)” value is at most -4.2. As for A28C A41U C43U G46C C85A U130G U135C, the figure is at most -4.2; as for C14G A29G A60G G94C C99U C114U, at most -4.2; as for U55G U61G C76U C87A U101G U134G G136U, at most -4.2. Under A29U A91U stands at most -4.2.

Regarding A16U C27G A89G G92U C149G, the “polymerase ribozyme fitness (log ratio)” value is at most -4.2. C85U G140U: the “polymerase ribozyme fitness (log ratio)” value is -2.51. For A47C U55A C87G A91G A150G, the “polymerase ribozyme fitness (log ratio)” value is at most -4.2. As for A26C G68C A122C U135C U139G U145G, the figure is at most -4.2. A60U C96G: the “polymerase ribozyme fitness (log ratio)” value was -3.34. Under G100U A142C stands -4.17; under C36U U53A A119G, -1.17; under A73G A122U G126U, -0.405.

As for C69U G81U, the “polymerase ribozyme fitness (log ratio)” value was -2.07.

As to A49C G58A G65A U139A, the “polymerase ribozyme fitness (log ratio)” value is at most -4.2. As for G11C A49C U53G G141A, the figure is at most -4.2.

For U82G G86U U102G U130G A147U, the “polymerase ribozyme fitness (log ratio)” value was at most -4.2. As for C27U A41C C95U C125U, the “polymerase ribozyme fitness (log ratio)” value is -2.83. Under A3C U61A G84A G92A A120C stands at most -4.2; under G42C U101G G136U, at most -4.2; under A24U A28C A52G G71A C96G A137C, at most -4.2. As for A39U U77A G81C C87U C95U A98C G126U G136C, the figure is at most -4.2; as for A49U G67A C95U C114G A142C, at most -4.2.

In the case of C54U C93U A98G, the “polymerase ribozyme fitness (log ratio)” value was -1.41. Take A52G C93U: the “polymerase ribozyme fitness (log ratio)” value is -1.74.
